Test results from patent US20170143843A1 (Genentech, published 2017).

Tests used:
human factor D [1] = molecular target: T1, human factor D (human, UniProt P00746 26-253); assay: SPR Biacore T200, Fab captured by anti-huFab, human fD injected, 25 C
T1 construct: also called fD
Method: Antibody Fab fragments were immobilized on a Series S CM5 sensor chip using the anti-huFab capture kit (GE healthcare Cat. #28-9583-25) following a protocol described by the manufacturer. Kinetics of binding were calculated from sensorgrams recorded for injection of 60 μL aliquots of solutions of human factor D varied in concentration from 0.39 nM to 25 nM in 2-fold increments. The flow rate was 30 μL/minute, the running buffer was HBS-P+, the temperature of analysis was 25° C., real-time reference cell subtraction was employed, and dissociation following factor D injection was followed for 10 minutes. After subtraction of the sensorgram observed for injection of running buffer, data were analyzed according to a 1:1 model using BiaEval software v4.1 (GE Healthcare) to extract the kinetics and affinity constants.

human factor D [2] = molecular target: T1, human factor D; assay: cell-based or functional assay
human factor D [3] = molecular target: T1, human factor D; assay: SPR total binding to fD over time; Fab 100 mg/mL in PBS, 37 C, 10 weeks (FIG. 2B)
human factor D [4] = molecular target: T1, human factor D; assay: cell-based or functional assay; remark: listed apart in the source
human factor D [5] = molecular target: T1, human factor D; assay: cell-based or functional assay; remark: listed apart in the source

T1 sequence (P00746 26-253 limits assumed): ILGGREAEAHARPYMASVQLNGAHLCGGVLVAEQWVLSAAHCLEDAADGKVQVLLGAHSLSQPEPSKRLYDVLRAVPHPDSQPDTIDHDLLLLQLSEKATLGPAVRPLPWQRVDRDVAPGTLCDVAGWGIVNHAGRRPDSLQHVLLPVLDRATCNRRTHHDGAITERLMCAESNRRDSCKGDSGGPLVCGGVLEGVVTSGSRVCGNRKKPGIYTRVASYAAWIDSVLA

Row | Binder | Kd (human factor D [1]) | Average IC50 fB Activation (pM), TR-FRET, 50 pM fD (human factor D [5]) | further results
1 | AFD.v10 (SIESD.D92E; VL-D28S:D30E:D31S VH-D62E VL-D92E) (Fab, V domains shown, Fab variant of aFD.WT) VH: EVQLVQSGPELKKPGASVKVSCKASGYTFTNYGMNWVRQAPGQGLEWMGWINTYTGETTYAEDFKGRFVFSLDTSVSTAYLQISSLKAEDTAVYYCEREGGVNNWGQGTLVTVSS VL: DIQVTQSPSSLSASVGDRVTITCITSTSIESDMNWYQQKPGKVPKLLISGGNTLRPGVPSRFSGSGSGTDFTLTISSLQPEDVATYYCLQSESLPYTFGQGTKVEIKR | 0.07 nM | – | –
2 | AFD.v5 (VL-D28S:D31S:D32S) (Fab, V domains shown, Fab variant of aFD.WT) VH: EVQLVQSGPELKKPGASVKVSCKASGYTFTNYGMNWVRQAPGQGLEWMGWINTYTGETTYADDFKGRFVFSLDTSVSTAYLQISSLKAEDTAVYYCEREGGVNNWGQGTLVTVSS VL: DIQVTQSPSSLSASVGDRVTITCITSTSIDSSMNWYQQKPGKVPKLLISGGNTLRPGVPSRFSGSGSGTDFTLTISSLQPEDVATYYCLQSDSLPYTFGQGTKVEIKR | 0.28 nM | – | –
3 | AFD.v7 (TM.D92E; VL-D30E:D31S VH-D62E VL-D92E) (Fab, V domains shown, Fab variant of aFD.WT; also called TM.D92E (AFD.v7)) VH: EVQLVQSGPELKKPGASVKVSCKASGYTFTNYGMNWVRQAPGQGLEWMGWINTYTGETTYAEDFKGRFVFSLDTSVSTAYLQISSLKAEDTAVYYCEREGGVNNWGQGTLVTVSS VL: DIQVTQSPSSLSASVGDRVTITCITSTDIESDMNWYQQKPGKVPKLLISGGNTLRPGVPSRFSGSGSGTDFTLTISSLQPEDVATYYCLQSESLPYTFGQGTKVEIKR | ≤ 0.01 nM | – | IC50 (nM) AP Hemolysis (rabbit erythrocytes, C1q-depleted human serum) (human factor D [2]): 3.8 nM
4 | AFD.v9 (VL-D28S:D30E:D31S VH-D62E VL-N34S) (Fab, V domains shown, Fab variant of aFD.WT; also called SIESD + VL-N34S) VH: EVQLVQSGPELKKPGASVKVSCKASGYTFTNYGMNWVRQAPGQGLEWMGWINTYTGETTYAEDFKGRFVFSLDTSVSTAYLQISSLKAEDTAVYYCEREGGVNNWGQGTLVTVSS VL: DIQVTQSPSSLSASVGDRVTITCITSTSIESDMSWYQQKPGKVPKLLISGGNTLRPGVPSRFSGSGSGTDFTLTISSLQPEDVATYYCLQSDSLPYTFGQGTKVEIKR | 0.03 nM | – | –
5 | AFD.v14.C+TP octamer (Cys-modified AFD.v14-8ARM (TP)-PEG-MAL conjugate) (other, C-terminal Cys linked through maleimide to one arm of a 40,000 MW eight-armed PEG with tripentaerythritol (TP) core (8ARM (TP)-PEG-MAL, JenKem)) light: DIQVTQSPSSLSASVGDRVTITCITSTSIESDMNWYQQKPGKVPKLLISGGNTLRPGVPSRFSGSGSGTDFTLTISSLQPEDVATYYCLQSDSLPYTFGQGTKVEIKRTVAAPSVFIFPPSDEQLKSGTASVVCLLNNFYPREAKVQWKVDNALQSGNSQESVTEQDSKDSTYSLSSTLTLSKADYEKHKVYACEVTHQGLSSPVTKSFNRGEC heavy: EVQLVQSGPELKKPGASVKVSCKASGYTFTNYGMNWVRQAPGQGLEWMGWINTYTGETTYAEDFKGRFVFSLDTSVSTAYLQISSLKAEDTAVYYCEREGGVSNWGQGTLVTVSSASTKGPSVFPLAPSSKSTSGGTAALGCLVKDYFPEPVTVSWNSGALTSGVHTFPAVLQSSGLYSLSSVVTVPSSSLGTQTYICNVNHKPSNTKVDKKVEPKSCDKTHTC | – | – | Average IC50 fB Activation (pM), TR-FRET, 125 pM fD; AFD.v14 TP octamer (CEX pool) (human factor D [4]): 77 pM; Average IC50 fB Activation (pM), TR-FRET, 125 pM fD; AFD.v14 TP octamer (S200 pool) (human factor D [4]): 104 pM
6 | AFD.v8 tetramer (AFD.v8.C conjugated to Sunbright PTE-400MA four-armed PEG) (other, C-terminal Cys linked through maleimide to one arm of a 40,000 MW four-armed PEG (Sunbright PTE-400MA)) light: DIQVTQSPSSLSASVGDRVTITCITSTSIESDMNWYQQKPGKVPKLLISGGNTLRPGVPSRFSGSGSGTDFTLTISSLQPEDVATYYCLQSDSLPYTFGQGTKVEIKRTVAAPSVFIFPPSDEQLKSGTASVVCLLNNFYPREAKVQWKVDNALQSGNSQESVTEQDSKDSTYSLSSTLTLSKADYEKHKVYACEVTHQGLSSPVTKSFNRGEC heavy: EVQLVQSGPELKKPGASVKVSCKASGYTFTNYGMNWVRQAPGQGLEWMGWINTYTGETTYAEDFKGRFVFSLDTSVSTAYLQISSLKAEDTAVYYCEREGGVNNWGQGTLVTVSSASTKGPSVFPLAPSSKSTSGGTAALGCLVKDYFPEPVTVSWNSGALTSGVHTFPAVLQSSGLYSLSSVVTVPSSSLGTQTYICNVNHKPSNTKVDKKVEPKSCDKTHTC | – | 11 pM | –

Further lines, with some results ahead:

Row | Kd (human factor D [1]) | Average IC50 fB Activation (pM), TR-FRET, 50 pM fD (human factor D [5]) | Binder | further results
7 | 0.07 nM | – | AFD.v11 (VL-D28S:D30E:D31S VH-D62E VH-N52S) (Fab, V domains shown, Fab variant of aFD.WT; also called SIESD + VH-N52S) VH: EVQLVQSGPELKKPGASVKVSCKASGYTFTNYGMNWVRQAPGQGLEWMGWISTYTGETTYAEDFKGRFVFSLDTSVSTAYLQISSLKAEDTAVYYCEREGGVNNWGQGTLVTVSS VL: DIQVTQSPSSLSASVGDRVTITCITSTSIESDMNWYQQKPGKVPKLLISGGNTLRPGVPSRFSGSGSGTDFTLTISSLQPEDVATYYCLQSDSLPYTFGQGTKVEIKR | –
8 | 0.0256 nM | 34 pM | AFD.v14 (SIESD.N103S; VL-D28S:D30E:D31S VH-D62E VH-N103S) (Fab, V domains shown, Fab; also called SIESD.N103S (AFD.v14); AFD.14) VH: EVQLVQSGPELKKPGASVKVSCKASGYTFTNYGMNWVRQAPGQGLEWMGWINTYTGETTYAEDFKGRFVFSLDTSVSTAYLQISSLKAEDTAVYYCEREGGVSNWGQGTLVTVSS VL: DIQVTQSPSSLSASVGDRVTITCITSTSIESDMNWYQQKPGKVPKLLISGGNTLRPGVPSRFSGSGSGTDFTLTISSLQPEDVATYYCLQSDSLPYTFGQGTKVEIKR | loss in binding (human factor D [3]): 10%; IC50 (nM) AP Hemolysis (rabbit erythrocytes, C1q-depleted human serum) (human factor D [2]): 4.1 nM; Average IC50 fB Activation (pM), TR-FRET, 125 pM fD (human factor D [4]): 87 pM
9 | – | 14.8 pM | AFD.v14 tetramer (AFD.v14.C conjugated to Sunbright PTE-400MA four-armed PEG) (other, C-terminal Cys linked through maleimide to one arm of a 40,000 MW four-armed PEG (Sunbright PTE-400MA)) light: DIQVTQSPSSLSASVGDRVTITCITSTSIESDMNWYQQKPGKVPKLLISGGNTLRPGVPSRFSGSGSGTDFTLTISSLQPEDVATYYCLQSDSLPYTFGQGTKVEIKRTVAAPSVFIFPPSDEQLKSGTASVVCLLNNFYPREAKVQWKVDNALQSGNSQESVTEQDSKDSTYSLSSTLTLSKADYEKHKVYACEVTHQGLSSPVTKSFNRGEC heavy: EVQLVQSGPELKKPGASVKVSCKASGYTFTNYGMNWVRQAPGQGLEWMGWINTYTGETTYAEDFKGRFVFSLDTSVSTAYLQISSLKAEDTAVYYCEREGGVSNWGQGTLVTVSSASTKGPSVFPLAPSSKSTSGGTAALGCLVKDYFPEPVTVSWNSGALTSGVHTFPAVLQSSGLYSLSSVVTVPSSSLGTQTYICNVNHKPSNTKVDKKVEPKSCDKTHTC | –
